We go through four molecules from patent publication US20160137713A1.

Test [1] has as its target soluble human FcRn (human) (UniProt P55899). Nature of the test: ELISA on coated shFcRn, scFv 100 ng/mL, pH 6.0. In general terms: In an ELISA, binding on a coated surface is turned into a signal by an enzyme label.
For test [2] the target is unchanged. Nature of the test: ELISA on coated shFcRn, scFv 100 ng/mL, pH 7.4.

Numbering of substitutions follows the chain as printed.

soluble human FcRn (human), sequence (P55899 24-297, chain 1 of 2): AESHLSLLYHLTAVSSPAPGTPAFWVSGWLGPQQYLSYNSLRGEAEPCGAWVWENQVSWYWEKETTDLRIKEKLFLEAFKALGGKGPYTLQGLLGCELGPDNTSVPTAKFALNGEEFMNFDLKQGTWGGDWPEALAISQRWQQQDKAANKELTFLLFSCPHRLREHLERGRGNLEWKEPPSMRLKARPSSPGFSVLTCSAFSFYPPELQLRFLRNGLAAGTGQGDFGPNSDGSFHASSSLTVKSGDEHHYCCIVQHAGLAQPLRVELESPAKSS
soluble human FcRn (human), sequence (P61769 21-119, chain 2 of 2, further chain): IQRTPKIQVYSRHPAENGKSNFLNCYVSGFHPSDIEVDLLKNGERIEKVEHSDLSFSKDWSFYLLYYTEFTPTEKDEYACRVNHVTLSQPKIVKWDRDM

B1: A12-E01 (scFv, V domains shown, not shown: small tags and cut ends)
VH: EVQLVESGGGLVQPGRSLRLSCAASGFTFDEYGMHWVRQAPGKGLEWVSGVSWNSGSIAYADSVRGRFTISRDNAKNSLYLQMNSLRAEDTALYYCAKSRSMDVWGQGTTVTVSS
VL: QSALTQPASVSGSPGQSITISCTGSSSDVGGYNYVSWYQQHPGKAPKLMIYDVTKRPSGVSNRFSGSKSGNTASLTISGLQAEDEADYYGSYSNNNFYVFGTGTKVTVLG
modifications: linker not given
Consider B1, for which the ELISA (OD450) in test [1] came to 1.71 OD450; in test [2] it was 1.05 OD450.

B2: A12-H04 (scFv, V domains shown, not shown: small tags and cut ends)
VH: B1 VH with S99G, S101L, M102L
VL: B1 VL with S91A, N95T
modifications: linker not given
For B2, the ELISA (OD450) in test [1] worked out at 2.26 OD450; in test [2], 1.57 OD450.

B3: A12-E04 (scFv, V domains shown, not shown: small tags and cut ends)
VH: B1 VH with S99G, S101L, M102F
VL: B1 VL with N95S
modifications: linker not given
Take B3: the ELISA (OD450) is 1.59 OD450 in test [1] and 1.29 OD450 in test [2].

B4: A12-E05 (scFv, V domains shown, not shown: small tags and cut ends)
VH: B1 VH with S99G, S101I, M102L
VL: B1 VL with S93N, N95S, N96T
modifications: scFv linker not given
For B4, the values for the ELISA (OD450) in test [1] and in test [2] were 2.06 OD450 and 1.8 OD450, respectively.
